Source: US20040096901A1
Several values for one entry are separate records, joined by “and”; a condition that tells them apart may be missing. Equal values may be shown once.

Target: CD45 antigen (leukocyte common antigen), human, on cells (human) (UniProt P08575)
Assay: cell-based or functional assay

B1: chimeric anti-CD45RO/RB mAb "candidate mAb" (antibody, human IgG1, kappa, V domains shown)
VH: EVQLQQSGPELVKPGASVKMSCKASGYTFTNYIIHWVKQEPGQGLEWIGYFNPYNHGTKYNEKFKGRATLTADKSSNTAYMDLSSLTSEDSAIYYCARSGPYAWFDTWGQGTTVTVSS
VL: DILLTQSPAILSVSPGERVSFSCRASQNIGTSIQWYQQRTNGSPRLLIRSSSESISGIPSRFSGSGSGTDFTLSINSVESEDIADYYCQQSNTWPFTFGSGTKLEIKR
% of Inhibition of primary MLR (responder #211 CD4, stimulator #219 CD3), 10 ug/ml mAb: 63.5%
% of Inhibition of primary MLR (responder #220 CD4, stimulator #219 CD3 depl.), 10 ug/ml mAb: 63.1%
% of Inhibition of primary MLR (responder #227 CD4, stimulator #220 CD3 depl.), 10 ug/ml mAb: 66%
% of Inhibition of primary MLR (responder #229 CD4, stimulator #219 CD3 depl.), 10 ug/ml mAb: 50.8%
IC50 for the inhibition of primary MLR (cellular activity IC50): 0.87 nM and 0.13 µg/ml
